Results: patent US20260116970A1 (NMI NATURWISSENSCHAFTLICHES UND MEDIZINISCHES INSTITUT AN …, published 2026)

T1: murine SIRPα on U2OS cells (mouse, UniProt P97797 32-513)
T1 construct: whole, on cells; also called mouse SIRPα
T1 sequence (looked up): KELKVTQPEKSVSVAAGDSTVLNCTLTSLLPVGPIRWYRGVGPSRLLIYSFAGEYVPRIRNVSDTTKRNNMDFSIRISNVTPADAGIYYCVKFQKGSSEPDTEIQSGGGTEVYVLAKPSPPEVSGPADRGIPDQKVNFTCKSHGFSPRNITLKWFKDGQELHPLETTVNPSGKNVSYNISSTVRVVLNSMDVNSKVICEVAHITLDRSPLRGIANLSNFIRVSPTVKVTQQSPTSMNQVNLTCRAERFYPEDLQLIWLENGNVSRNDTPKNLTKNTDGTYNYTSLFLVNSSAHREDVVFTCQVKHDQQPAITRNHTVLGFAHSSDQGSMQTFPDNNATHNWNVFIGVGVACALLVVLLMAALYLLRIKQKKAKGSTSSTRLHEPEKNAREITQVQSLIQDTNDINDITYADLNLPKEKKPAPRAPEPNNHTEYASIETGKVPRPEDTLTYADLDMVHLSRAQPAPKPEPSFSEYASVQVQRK


Assays:
[1] = target: T1, murine SIRPα on U2OS cells; assay: live-cell immunofluorescence on U2OS cells transiently expressing murine SIRPα
Experimental: (§1) Stably expressing hSIRPα U2OS cells, U2OS wt or U2OS cells transiently expressing individual hSIRPα domains (D1-3) with SPOT-Tag or different hSIRP family members (hSIRPα-V1, hSIRPα-V2, hSIRPβ1, hSIRPγ, murine SIRPα) were plated at ˜10,000 cells per well of a μClear 96-well plate (Greiner Bio One, cat. #655090) and cultivated overnight at standard conditions. For imaging, medium was replaced by live-cell visualization medium DMEMgfp-2 (Evrogen, cat. #MC102) supplemented with 10% FBS, 2 mM L-glutamine, 2 μg/ml Hoechst33258 (Sigma Aldrich) for nuclear staining. 1-100 nM of unlabeled hSIRPα Nbs in combination with 2.5 μg/ml anti-VHH secondary Cy5 AffiniPure Goat Anti-Alpaca IgG (Jackson Immuno Research) were added and incubated for 1 h at 37° C. For control staining hSIRPα Ab PE (SE5A5, BioLegend) and bivSPOT-Nb labeled with AlexaFluor647 (AF647) were used. Images were acquired with a MetaXpress Micro XL system (Molecular Devices) at 20× or 40× magnification.
(§2) Moreover, with hSIRPαV1 and hSIRPαV2, two isoforms are expressed either homozygously (v1/v1 or v2/v2) or heterozygously (v1/v2), and the frequency of distribution varies between human subpopulations (Sim et al., “Discovery of high affinity, pan-allelic, and pan-mammalian reactive antibodies against the myeloid checkpoint receptor SIRPα”, MAbs. Taylor & Francis (2019) pp. 1036-1052). To address the question of specificity, hSIRPβ1, hSIRPγ or the hSIRPα polymorphisms hSIRPα-V1 and hSIRPα-V2 were transiently expressed in U2OS cells and their recognition was analyzed by the selected hSIRPα Nbs by immunofluorescence staining. In addition, murine SIRPα was included to evaluate potential cross-reactivity between human and mouse SIRPα variants (FIG. 3A; data not shown).

[2] = target: T2, hSIRPγ on U2OS cells (human, UniProt Q9P1W8 29-387); assay: live-cell immunofluorescence on U2OS cells transiently expressing hSIRPγ, detection with anti-VHH-Cy5
T2 construct: whole, on cells; also called SIRP gamma
T2 sequence (Q9P1W8 29-387): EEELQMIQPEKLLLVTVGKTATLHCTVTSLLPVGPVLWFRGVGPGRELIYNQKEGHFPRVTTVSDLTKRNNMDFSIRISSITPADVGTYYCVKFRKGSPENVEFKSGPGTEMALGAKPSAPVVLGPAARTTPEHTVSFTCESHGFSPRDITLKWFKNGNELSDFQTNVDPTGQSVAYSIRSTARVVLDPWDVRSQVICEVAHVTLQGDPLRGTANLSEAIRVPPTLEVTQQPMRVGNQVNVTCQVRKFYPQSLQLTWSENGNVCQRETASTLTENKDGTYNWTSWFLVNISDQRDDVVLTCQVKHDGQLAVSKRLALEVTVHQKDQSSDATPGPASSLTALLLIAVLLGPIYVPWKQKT
Experimental: (§3) Data are presented as mean±SD of three technical replicates.
as §1, §2

[3] = target: T3, recombinant hSIRPα (extracellular portion) (human, UniProt P78324 31-373, biotinylated with Sulfo-NHS-LC-LC-Biotin where immobilised on streptavidin sensors); assay: BLI, biotinylated hSIRPα immobilised on streptavidin biosensors, Nb in solution, global 1:1 fit
T3 construct: extracellular domain; The limits aa31-370 are stated for the immunogen; The BLI and HDX text says only 'recombinant hSIRPα' / 'biotinylated hSIRPα'; also called biotinylated hSIRPα
T3 sequence (P78324 31-373): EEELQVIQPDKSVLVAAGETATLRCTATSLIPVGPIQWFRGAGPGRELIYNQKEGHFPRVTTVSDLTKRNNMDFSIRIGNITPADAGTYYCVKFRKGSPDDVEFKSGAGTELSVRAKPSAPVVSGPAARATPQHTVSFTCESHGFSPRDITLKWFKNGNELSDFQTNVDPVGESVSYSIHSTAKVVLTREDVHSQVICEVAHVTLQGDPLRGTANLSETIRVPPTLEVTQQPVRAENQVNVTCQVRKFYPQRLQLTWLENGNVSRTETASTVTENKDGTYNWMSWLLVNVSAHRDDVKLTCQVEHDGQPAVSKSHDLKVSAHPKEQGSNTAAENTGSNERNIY
Experimental: (§4) Biotinylated hSIRPα was immobilized on streptavidin biosensors.
(§5) Analysis of binding kinetics of hSIRPα specific Nbs was performed using the Octet RED96e system (Sartorius) as per the manufacturer's recommendations. In brief, […] of biotinylated hSIRPα diluted in Octet buffer (PBS, 0.1% BSA, 0.02% Tween20) was immobilized on streptavidin coated biosensor tips (SA, Sartorius) for 40 s. In the association step, a dilution series of Nbs ranging from 0.625-320 nM were reacted for 240 s followed by dissociation in Octet buffer for 720 s. Every run was normalized to a reference run applying Octet buffer for association. Data were analyzed using the Octet Data Analysis HT 12.0 software applying the 1:1 ligand-binding model and global fitting. For epitope binning two consecutive association steps with different Nbs were performed. By analyzing the binding behavior of the second Nb, conclusions about shared epitopes were drawn. For the hCD47 competition assay hCD47 was biotinylated and immobilized on SA biosensors followed by the application of pre-mixed solutions containing hSIRPα (20 nM) and Nb (250 nM). As control the hCD47-competing Ab KWAR23 (5 nM) was used.

[4] = target: T3, recombinant hSIRPα (extracellular …); assay: BLI, biotinylated hSIRPα immobilised on streptavidin biosensors, chelator conjugated S36K>R at 1.25-10 nM
Experimental: Biotinylated hSIRPα was immobilized on streptavidin biosensors. Kinetic measurements were performed by using four concentrations of purified Nbs ranging from 1.25 nM to 10 nM; (E) Stability analysis of chelator conjugated hSIRPα-S36_{K>R} Nb by nanoDSF as fluorescence ratios (350 nm/330 nm) and light intensity loss due to scattering illustrated as first derivative before (To) and after 10 days of accelerated aging at 37° C. (T₁₀); and (F) Phagocytosis of DLD-1 cells by human monocyte-derived macrophages treated with anti-EGFR cetuximab and chelator conjugated hSIRPα-S36_{K>R} Nb. Analysis of phagocytosis of hSIRPα-S36_{K>R} Nb in combination with cetuximab of three different donors (K1, K2, K3). Data are presented as mean±SD of three technical replicates. And
Analysis of binding kinetics of hSIRPα specific Nbs was performed using the Octet RED96e system (Sartorius) as per the manufacturer's recommendations. In brief, […] of biotinylated hSIRPα diluted in Octet buffer (PBS, 0.1% BSA, 0.02% Tween20) was immobilized on streptavidin coated biosensor tips (SA, Sartorius) for 40 s. In the association step, a dilution series of Nbs ranging from 0.625-320 nM were reacted for 240 s followed by dissociation in Octet buffer for 720 s. […] Data were analyzed using the Octet Data Analysis HT 12.0 software applying the 1:1 ligand-binding model and global fitting. […]

[5] = target: T4, hSIRPβ1 on U2OS cells (human, UniProt O00241 30-398); assay: immunofluorescence on U2OS cells transiently expressing hSIRPβ1
T4 construct: whole, on cells; also called SIRP beta
T4 sequence (O00241 30-398): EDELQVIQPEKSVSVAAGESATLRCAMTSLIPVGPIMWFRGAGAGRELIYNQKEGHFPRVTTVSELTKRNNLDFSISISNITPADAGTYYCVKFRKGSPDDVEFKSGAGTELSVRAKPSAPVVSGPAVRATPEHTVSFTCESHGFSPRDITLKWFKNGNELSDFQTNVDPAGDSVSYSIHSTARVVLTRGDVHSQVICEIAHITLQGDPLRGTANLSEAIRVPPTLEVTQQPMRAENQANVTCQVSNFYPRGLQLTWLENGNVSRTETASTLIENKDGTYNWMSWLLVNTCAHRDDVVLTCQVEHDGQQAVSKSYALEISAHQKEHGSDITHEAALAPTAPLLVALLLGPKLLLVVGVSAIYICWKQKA
Experimental: as §1, with “For control staining hSIRPα Ab PE (SE5A5, BioLegend) and bivSPOT-Nb labeled with AlexaFluor647 (AF647) were used. Images were acquired with a MetaXpress Micro XL system (Molecular Devices) at 20× or 40× magnification.” left out
(§6) Moreover, with hSIRPαV1 and hSIRPαV2, two isoforms are expressed either homozygously (v1/v1 or v2/v2) or heterozygously (v1/v2), and the frequency of distribution varies between human subpopulations (Sim et al., “Discovery of high affinity, pan-allelic, and pan-mammalian reactive antibodies against the myeloid checkpoint receptor SIRPα”, MAbs. Taylor & Francis (2019) pp. 1036-1052). To address the question of specificity, hSIRPβ1, hSIRPγ or the hSIRPα polymorphisms hSIRPα-V1 and hSIRPα-V2 were transiently expressed in U2OS cells and their recognition was analyzed by the selected hSIRPα Nbs by immunofluorescence staining. […]

[6] = target: T2, hSIRPγ on U2OS cells; assay: immunofluorescence on U2OS cells transiently expressing hSIRPγ
Experimental: as §1, with “For control staining hSIRPα Ab PE (SE5A5, BioLegend) and bivSPOT-Nb labeled with AlexaFluor647 (AF647) were used. Images were acquired with a MetaXpress Micro XL system (Molecular Devices) at 20× or 40× magnification.” left out
as §6

[7] = target: T3, recombinant hSIRPα (extracellular …); assay: BLI, biotinylated hSIRPα immobilised on streptavidin biosensors, S36 at 0.625-5 nM, global 1:1 fit
Experimental: as §4, §5

[8] = target: T5, hSIRPα-V2 on U2OS cells (human, UniProt P78324 31-504); assay: live-cell immunofluorescence on U2OS cells transiently expressing hSIRPα-V2, detection with anti-VHH-Cy5
T5 construct: whole, on cells
T5 sequence (P78324 other isoform, or with tags, fused parts or gaps limits assumed): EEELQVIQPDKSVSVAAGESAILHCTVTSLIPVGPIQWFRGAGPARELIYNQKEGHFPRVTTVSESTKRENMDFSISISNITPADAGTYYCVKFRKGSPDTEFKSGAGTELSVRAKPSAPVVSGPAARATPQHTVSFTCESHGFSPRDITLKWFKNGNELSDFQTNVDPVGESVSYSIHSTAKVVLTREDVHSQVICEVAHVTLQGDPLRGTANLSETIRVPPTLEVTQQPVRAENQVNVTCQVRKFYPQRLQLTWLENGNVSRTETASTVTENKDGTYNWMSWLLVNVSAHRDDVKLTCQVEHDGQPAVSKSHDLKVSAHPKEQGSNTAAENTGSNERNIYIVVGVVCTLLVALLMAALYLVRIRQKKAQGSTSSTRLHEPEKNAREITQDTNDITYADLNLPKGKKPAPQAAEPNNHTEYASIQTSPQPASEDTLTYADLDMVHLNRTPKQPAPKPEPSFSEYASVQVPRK
Experimental: as §3
Stably expressing hSIRPα U2OS cells, U2OS wt or U2OS cells transiently expressing individual hSIRPα domains (D1-3) with SPOT-Tag or different hSIRP family members (hSIRPα-V1, hSIRPα-V2, hSIRPβ1, hSIRPγ, murine SIRPα) were plated at ˜10,000 cells per well of a μClear 96-well plate (Greiner Bio One, cat. #655090) and cultivated overnight at standard conditions. For imaging, medium was replaced by live-cell visualization medium DMEMgfp-2 (Evrogen, cat. #MC102) supplemented with 10% FBS, 2 mM L-glutamine, 2 μg/ml Hoechst33258 (Sigma Aldrich) for nuclear staining. […]
as §6

Binder	binding result [1]	binding result [2]	Kd [3]	koff [3]	kon [3]	Kd [4]	binding result [5]	binding result [6]	Kd [7]	binding result [8]
hSIRPα nanobody S7 (VHH, Expressed from pHEN6 in E. coli and purified by IMAC; the tag is not described; also called Nb S7) VHH: HVQLVESGGGLVQVGDSLRLSCAPSGRTFRAYAMAWFRQAPGKEREFVAAIRWIGGTPSYKDSVKGRFTISRDNARNTFYLQMNSLEPQDTGVYYCAAEETQKGSGLGHDGRHYDYWGQGTPVTVSS	no binding (tested: 1-100 nM)	no binding (tested: not on the sheet; 1-100 nM per paragraph 140)	20 nM	0.0123 s⁻¹	610000 M⁻¹ s⁻¹	–	–	–	–	–
hSIRPα nanobody S45 (VHH, also called Nb S45) VHH: HVQLVESGGGLVQPGGSLRLSCAARGFSFRDSAMSWARQAPGKGLEWVGAIYSDGSTVYEKSVKGRFTISRDNAKNTMYLQMHSLKPEDSARYYCAPKGVVADEGDYSGQGTLVTVSS	no binding (tested: 1-100 nM)	no binding (tested: not on the sheet; 1-100 nM per paragraph 140)	2.53 nM	0.00164 s⁻¹	646000 M⁻¹ s⁻¹	–	–	–	–	–
chelator conjugated hSIRPα-S36K>R Nb (VHH, p-NCS-benzyl-NODA-GA chelator conjugated to the single remaining primary NH2-group at the N-terminus) VHH: EVQLVESGGGLVQPGGSLRLSCAASGFTLDYYAIGWFRQVPGREREGVSCISSDGGGNTYYADSVRGRFTISRDNARNTVYLQMNSLRPEDSAVYSCAAGPTYYSGSYCRDPHSDYDYWGQGTQVTVSS	–	–	–	–	–	0.19 nM	–	–	–	–
hSIRPα nanobody S36 (VHH, also called Nb S36; hSIRPα-S36 Nb) VHH: EVQLVESGGGLVQPGGSLRLSCAASGFTLDYYAIGWFRQVPGKEREGVSCISSDGGGNTYYADSVKGRFTISRDNAKNTVYLQMNSLKPEDSAVYSCAAGPTYYSGSYCRDPHSDYDYWGQGTQVTVSS	no binding (tested: 1-100 nM)	–	0.12 nM	0.0002 s⁻¹	1.52e+06 M⁻¹ s⁻¹	–	binds	binds	0.12 nM	–
hSIRPα nanobody S8 (VHH, Purified by IMAC; the tag is not described; also called Nb S8) VHH: QVQLVESGGGLVQPGGSLRLSCADSEFRLDEYATGWFRQAPGKEREGVACISRSGSNTKYTDSVKGRFTISRDNAKKTVYLQMNSLKPEDTAVYYCAADLTSHYLSCSSYTDYNSWGQGTQVTVSS	no binding (tested: 1-100 nM)	–	0.46 nM	0.0009 s⁻¹	2.04e+06 M⁻¹ s⁻¹	–	–	–	–	–
hSIRPα nanobody S41 (VHH, The single assignment S41 = 26 follows only from the listing order; also called Nb S41) VHH: HVQLVESGGGLVQPGGSLRLSCAASGETLDYYAIGYVRQAPGKEREGVSCISSRGDNTNYADSVKGRFTISRDNANNTVYLQMNSLKPEDTAVYYCVAIKDSWQNYYCSVGWVEYDVWGQGTQVTVSS	–	–	5.65 nM	0.00383 s⁻¹	678000 M⁻¹ s⁻¹	–	–	–	–	–
hSIRPα nanobody S44 (VHH, also called Nb S44) VHH: QVQLQESGGGLVQPGGSLRLACAASGFTFSSYDMSWVRQAPGKGLEWVSDIKSGGGRTYYADSVKGRFTISRDNAKNTVYLQMNSLKPEDTAVYYCGSLDNSGAYTGGGQGSQVTVSS	no binding (tested: 1-100 nM)	–	4.61 nM	0.00915 s⁻¹	1.99e+06 M⁻¹ s⁻¹	–	–	–	–	no binding (tested: not on the sheet; 1-100 nM per paragraph 140)
hSIRPα nanobody S33 (VHH, also called Nb S33) VHH: EVQLVESGGGLVQPGGSLRLSCTTSGFTLDYYSVGWFRQAPGKEREGVSCITASGSSTNYANSVKGRFTISRDKVKNTVYLQMSSLKPEDTAVYYCAAEPCTVVAGILQAPTSDFGSWGQGTQVTVSS	no binding (tested: 1-100 nM)	no binding (tested: not on the sheet; 1-100 nM per paragraph 140)	20 nM	0.00544 s⁻¹	267000 M⁻¹ s⁻¹	–	–	–	–	–
hSIRPα nanobody S12 (VHH, also called Nb S12) VHH: QVQLVESGGGLVQPGGSLRLSCLVSGFSSSYYAIGWFRQAPGKEREGVSCITRSGDTTNYADSVKGRFTISRDDARNTVYLQMNSLKTEDTAVYSCALWAWAGSGRLRCTASEYGHWGQGTQVTVSS	no binding (tested: 1-100 nM)	–	25.9 nM	0.0127 s⁻¹	490000 M⁻¹ s⁻¹	–	–	–	–	no binding (tested: not on the sheet; 1-100 nM per paragraph 140)
